According to patent US8440629B2, “Cyclic receptor-associated protein (RAP) peptides” (Raptor Pharmaceuticals Inc., priority 2007, dated 2013):
Where two headings read alike, the source gives them in different places. Each block holds one substance with its values, some of them ahead of it. Positions of bridges follow the written chain, without caps; N, C: chain ends. No end group written: not given here.

Experiments:
[1] = target: T1, LRP1 cluster II (LRP1-C2) (Homo sapiens, UniProt Q07954); test: Inhibition of RAP d3 binding to LRP1-C2 (ELISA)
T1 construct: recombinant human LRP1 cluster II (amino acids 786-1165, with C-terminal Fc tag); purchased R&D Systems; host or cells: NS0
T1 sequence (Q07954 786-1165): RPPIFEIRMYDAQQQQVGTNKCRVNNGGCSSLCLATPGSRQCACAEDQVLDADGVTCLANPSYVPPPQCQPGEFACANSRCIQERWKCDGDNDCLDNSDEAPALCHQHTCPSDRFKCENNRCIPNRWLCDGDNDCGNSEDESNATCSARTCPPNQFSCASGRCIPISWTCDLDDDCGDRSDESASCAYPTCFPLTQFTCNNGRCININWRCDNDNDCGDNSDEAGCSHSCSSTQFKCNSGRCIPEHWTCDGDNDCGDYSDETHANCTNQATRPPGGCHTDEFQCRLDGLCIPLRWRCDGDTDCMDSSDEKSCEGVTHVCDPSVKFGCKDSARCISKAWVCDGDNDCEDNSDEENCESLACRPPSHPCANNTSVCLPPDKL
Experimental: Binding inhibition assays were also carried out to determine the ability of the mRAPc peptide to interfere with RAP d3 binding to LRP1 (cluster II), as well as binding of LRP ligands α-2-macroglobulin and uPA/PAI-1. To allow complexation with streptavidin or an anti-biotin antibody, the mRAPc peptide was fitted with an N-terminal biotin residue separated from the RAP sequence by a pentapeptide linker (GGSGG). Solid phase binding assays were performed using recombinant human LRP1 cluster II (amino acids 786-1165, with C-terminal Fc tag, 1 μg, R&D Systems, Minneapolis, Minn.) to coat Nunc MAXISORP™ 96-well plates in TBS pH 8 supplemented with 5 mM CaCl2 (TBSC) overnight at 4° C. Data was generated by ELISA assay. Wells were washed with TBSC and blocked with TBSC containing 2% BSA. In assays involving complexes between streptavidin and biotinylated peptide, LRP1 ligands (RAP d3 (2 nM), trypsin-activated α-2-macroglobulin (1 nM) or uPA/PAI-1 (10 nM) were incubated with the immobilized receptor, in the presence or absence of inhibitors, for 2 hours in the above blocking buffer supplemented with 0.05% Tween-20 at room temperature. In assays involving complexes of the anti-biotin antibody and biotinylated peptide, all inhibitor solutions were pre-incubated with immobilized LRP1-C2 prior to washing and subsequent incubation with ligand. Since the ligand binding competence of CR pairs requires calcium, identical binding reactions were done in the presence of 50 mM EDTA to provide a measure of non-specific binding. Control wells contained no added inhibitor. Wells were washed with TBS supplemented with 5 mM CaCl2 and 0.05% Tween-20. Bound ligand was detected with either anti-S-peptide-HRP conjugate (Abcam, Cambridge, Mass.), anti-α-2-macroglobulin-HRP or anti-PAI-1-HRP. Excess HRP conjugate was removed and wells washed. Color was developed using TMB reagents (BioRad, Hercules, Calif.). Absorption at 450 nm was measured with a microplate spectrophotometer (Molecular Devices, Palo Alto, Calif.).
The ability of mRAPc, in the presence and absence of either streptavidin or anti-biotin antibody, to inhibit binding of recombinant RAP d3 to LRP1-C2 was measured. […] The multifold enhancement of inhibition seen in the presence of streptavidin is consistent with an improvement in avidity upon multimerization of the minimized RAP domain.
Given the relatively weak monovalent affinity of the anti-biotin antibody for biotin (low nanomolar KD), it was hypothesized that preassembly of a multivalent complex consisting of two, suitably proximate, receptor-bound peptides and a single antibody would stabilize the peptide-antibody complex. Therefore, the antibody and peptide, in a molar ratio of one to three, was incubated with the immobilized receptor prior to washing and subsequent addition of the RAP d3 ligand. The same procedure was performed for the controls; peptide alone, antibody alone and RAP. […] Next the effect of the multimerized mRAPc was determined. The multimerized mRAPc was compared to the mRAPc monomer and full-length RAP in the inhibition of binding of two other ligands to LRP1-C2, trypsin-activated α-2-macroglobulin and the uPA/PAI-1 complex, at a single ligand concentration. […] In both cases, the complex of streptavidin and mRAPc inhibited binding with an EC50 approximately midway between RAP and the mRAPc monomer.

rhLRP1 cluster II = target: T2, rhLRP1 cluster II (Homo sapiens, UniProt Q07954); test: Solid phase binding assay of RAP peptides
T2 construct: rhLRP1 cluster II (aa 786-1165, C-terminal Fc, 1 μg); purchased R&D Systems; host or cells: NS0
T2 sequence (Q07954 786-1165): T1 sequence (Q07954 786-1165)
Experimental: Solid phase binding assays were carried out as follows. Recombinant murine VLDLR ectodomain (aa 1-798, C-terminal hexahistidine, 1 μg) or rhLRP1 cluster II (aa 786-1165, C-terminal Fc, 1 μg) were bound to Nunc Maxisorp™ 96-well plates in TBS pH 8 supplemented with 5 mM CaCl2 (TBSC) overnight at 4° C. Wells were washed with TBSC and then blocked with TBSC containing 2% BSA. Peptides were then incubated with the immobilized receptor at a range of concentrations for 2 hours in the above blocking buffer supplemented with 0.05% Tween-20 at room temperature. Identical binding reactions were done in the presence of 50 mM EDTA to provide a measure of non-specific binding. Control wells contained no added peptide. Additional controls established absence of cross-reactivity between antibodies and receptors. Wells were washed with TBSTC and bound peptides detected with streptavidin-HRP (Pierce) or polyclonal anti-RAP (1:1,000, Raptor Pharmaceutical). […] Absorption at 450 nm was measured with a microplate spectrophotometer (Molecular Devices). […]
The binding affinity of the peptides for LRP1 and VLDLR, another receptor in the LDLR family, was measured as follows. […] Bound peptides were detected with streptavidin-HRP after extensive washing. Binding values measured in the presence of EDTA were subtracted from values measured in the absence of EDTA in order to determine calcium-dependent binding levels. […]

LDLR, LRP5 and LRP6 = conditions: cited from earlier work
[2] = target: LRP1, LRP1B, LRP2, SorLA, apoER2 and VLDLR; conditions: read-out: dissociation constants; cited from earlier work

inhibitory effect (in words) ([1]; ligand and inhibitor incubated together): no inhibitory effect
Substance: streptavidin: streptavidin alone, control

Substance: CEAKIEKHNHYQKQLEIAHEKLRHAESVGDGERVSRSREKHALLEGRTKELGYTVKKHGC (disulfide 1-60) [mRAP-14c]
Kd (rhLRP1 cluster II): ~21 nM

EC50 better than peptide assembled on streptavidin ([1]; FIG. 14A): about 8 fold
EC50 improvement over monomeric mRAPc peptide ([1]; FIG. 14A): 64 fold
EC50 ([1]; inhibitor pre-incubated with immobilized receptor, washed, then ligand, FIG. 14B, read-out: EC50 of inhibition of RAP d3 binding): 0.3 nM
EC50 ([1]; ligand and inhibitor incubated together, FIG. 14A, read-out: degree of inhibition (EC50) of RAP d3 binding): 0.5 nM
Substance: RAP: receptor-associated protein, mature human RAP (SEQ ID NO: 95)
affinity lower than for LRP1 (LDLR, LRP5 and LRP6): at least 10 fold
Kd [2]: < 5 nM
